Measurements reported in article PMC4676722 (PLoS Genetics, 2015).
Where no end group is shown, it is not given here. [ ]: non-standard residue; d: D form. pY = N[C@@H](Cc1ccc(OP(=O)(O)O)cc1)C(=O)O

Molecular target: T1, recombinant ovine wild type SOCS2 (Suppressor of Cytokine Signaling 2) (sheep (ovine), UniProt A0ACI6S499 1-198)
T1 construct: also called rOvSOCS2 WT; SOCS2-WT
T1 sequence (looked up): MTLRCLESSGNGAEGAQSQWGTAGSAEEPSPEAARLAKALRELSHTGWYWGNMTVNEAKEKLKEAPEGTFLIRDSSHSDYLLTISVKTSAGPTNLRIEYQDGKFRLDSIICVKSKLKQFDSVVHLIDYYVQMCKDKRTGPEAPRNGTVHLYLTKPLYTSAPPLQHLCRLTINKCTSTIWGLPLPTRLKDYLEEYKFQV
Assay: SPR; BIAcore T200, single-cycle kinetics; biotinylated GHR pY-peptide immobilised on SA chip (75 RU), scramble peptide as reference; five injections of SOCS2 protein 100 nM-8.1 μM, 120 s each; 1:1 Langmuir fit; 25°C, HBS-EP buffer
Conditions: both partners purified

koff: 0.0016 s⁻¹
kon: 828 M⁻¹ s⁻¹
Binder: PVPD[pY]TSIHIV (also: biotinylated, site not given here) [phosphorylated peptide from the growth hormone receptor (pY595 GHR), biotinylated]
